Consider one molecule from patent publication US8114412B2, “T. cruzi-derived neurotrophic agents and methods of use therefor” (priority 1999, dated 2012).

The subject of data set [1] is Bcl-2 mRNA in PC12 cells. Kind of data set: RT-PCR of Bcl-2 gene transcripts in PC12 cells. Format: cell-based, rat. Conditions: TS 2.5 ng/ml, CNTF 50 ng/ml, alone or combined, 17 hours. How it is done: Total RNA was extracted from PC12 cells by the acid guanidinum isothiocyanate method (Chomchinski, P., et al., Biotechniques 15: 532-535 (1993)) using TRI-reagent (Molecular Research Center, Inc.). cDNA synthesis was performed according to the instruction of the manufacturer (Gibco-BRL). Reverse transcription reactions were carried out for 50 minutes at 42° C. and were heated to 70° C. for 15 minutes to terminate the reaction using a MiniCycler (MJ Research). Samples were cooled to 4° C. and stored at −20° C. until use.
PCR reactions were performed in 50 μl containing 1.5 μl of template DNA (corresponding to cDNA synthesized from 100 ng of total RNA), 1×PCR buffer, 100 μM of deoxynucleotides, 2.5 mM MgCl2, 10 mM DTT, 10 pM of Bcl-2 primers, and 2 U of Taq DNA polymerase (Gibco-BRL). The synthetic DNA primers for the rat Bcl-2 were: 5′-[…]-3′ (SEQ ID NO:8) and 5′-[…]-3′(SEQ ID NO:9) to give a PCR product of 566 bp. The sequences for synthetic GAPDH DNA primers (Wong, H., et al., Anal. Biochem. 223: 251-258 (1994)) were: 5′-[…]-3′ (SEQ ID NO:10) and 5′-[…]-3′ (SEQ ID NO:11) giving a PCR produce of 306 base pairs. Amplifications were carried out in MiniCycler (MJ Research) using following conditions: 98° C. for 5 minutes (initial heat denaturation), 3 cycles of 94° C. for 1 minute, 63° C. for 1 minute, 72° C. for 1.5 minutes; 3 cycles of 94° C. for 1 minutes, 60° C. for 1 minute, 72° C. for 1.5 minutes, followed by 72° C. for 10 minutes. Primers for GAPDH (10 pM) were added at cycle 7 by the “primer-dropping” method. Aliquots of PCR reaction products were separated by electrophoresis in 2% agarose gels (Ultrapure, Gibco-BRL), containing 0.2 μg/ml ethidium bromide. Gels were analyzed by computerized densitometric scanning using Gel doc 1000 (Bio Rad) and Molecular Analyst Software, version 2.1.

For data set [2], the system named is PC12 cells. Kind of data set: Trophic factor withdrawal-induced apoptosis of PC12 cells (DAPI/TUNEL). Format: cell-based, rat. Conditions: serum-free RPMI-1640/0.2% BSA, 17 hours, DAPI or TUNEL. From the text:
PC12 cells were obtained from ATCC (Manassas, Va. (Accession No. CRL-1721)) and cultured on collagen-coated dishes in RPMI 1640 supplemented with 10% horse serum and 5% fetal bovine serum (Greene, L. A. and Tishler, A. S., Proc. Natl. Acad. Sci. USA, 73: 2424-2428 (1976)). For differentiation and survival experiments, cells were washed three times in serum-free RPMI/0.2% BSA, plated in the same medium in collagen-coated plastic dishes at 2×10^5/ml, without and with growth factors, TS, recombinant proteins, synthetic peptides, for the time and concentrations indicated in the Figures.
Cell staining with 4,6-diamino-2-phenylindole (DAPI). Cells were fixed with 4% formaldehyde in PBS for 5 minutes, washed with PBS, stained with 10 μg/ml DAPI (Sigma) for 2 minutes, washed with PBS, and visualized under UV light using a fluorescent microscope. About 300-400 cells were examined under the microscope to determine the percentage of apoptotic cells.
Cell DNA nick end labeling (TUNEL) (Gavrieli, Y., et al., J. Cell. Biol. 119: 493-501 (1992)) assay was performed using a kit purchased from Boehringer Mannheim as described by the manufacturer.
(§1) Protection against apoptosis of PC12 cells in serum-free medium containing a test agent (agent N)(e.g., protection induced by TS, TS fragments, NGF or other growth factors), was calculated by the formula: 100%-[(apoptosis(%) of cells kept in RPMI containing test agent N÷apoptosis (%) of cells kept in RPMI)×100%]. Testing the effect of wortmannin (Sigma) and LY294002 (Sigma) in inhibiting the neuroprotection of TS was performed following the protocol described by others (Yao and Cooper, Science, 267:2003-2006 (1995); D'Mello et al., J. Neurosci 17:1548-1560 (1997)). In brief, PC12 cells were switched from growth medium to RPMI without and with TS or various other growth factors. After 24 hr, wortmannin and LY294002 were added to the cultures. After another 24 hrs, cells were examined for apoptosis by the DAPI assay, as above.

Data set [3] deals with PC12 cells. Put plainly: Reversal of TS-induced neuroprotection by PI-3 kinase inhibitors in PC12 cells. Type of data set: cell-based, rat. The conditions noted are these: RPMI+CNTF 50 ng/ml; similar to RPMI alone. How it is done: as §1
For data set [4] the following is noted: Martin et al. 1996; cited from earlier work.

B1: CNTF: human ciliary neurotrophic factor; recombinant human and rat CNTF (protein, UniProt P26441 1-200, looked up)
Ciliary neurotrophic factor: MAFTEHSPLTPHRRDLCSRSIWLARKIRSDLTALTESYVKHQGLNKNINLDSADGMPVASTDQWSELTEAERLQENLQAYRTFHVLLARLLEDQQVHFTPTEGDFHQAIHTLLLQVAAFAYQIEELMILLEYKIPRNEADGMPINVGDGGLFEKKLWGLKVLQELSQWTVRSIHDLRFISSHQTGIPARGSHYIANNKKM
In the case of B1, the “bcl-2 gene expression in PC12 cells” value in data set [1] is recorded as “did not induce bcl-2 gene expression individually”. Also, the “protection of PC12 cells from apoptosis induced by trophic factor withdrawal” value in data set [2] was “little, if any, protection”. In addition, in data set [3], the “viability of PC12 cells” value is recorded as approximately 33%. The “undesirable side effects of administration” value in data set [4] is “muscle atrophy, cachexia and anorexia”.
